Reference: patent publication EP3766894A1
Positions of bridges follow the written chain, without caps; N, C: chain ends. Non-standard residues stand in square brackets, D forms with d. Primed or numbered codes have the meaning given here. Chains are numbered I, II in the order given. No end group written: not given here. *: point of attachment. Palmitoyl = CCCCCCCCCCCCCCCC(=O)*; hArg = N=C(N)NCCCC[C@H](N)C(=O)O; Nle = CCCC[C@H](N)C(=O)O; PEG2″ = not defined here

Columns and labels:
[1] = molecular target: human Kallikrein-related peptidase 7 (hKLK7) (human), P49862; assay: activity assay
Sequence of human Kallikrein-related peptidase 7 (hKLK7) (human), P49862 (P49862 30-253 limits assumed): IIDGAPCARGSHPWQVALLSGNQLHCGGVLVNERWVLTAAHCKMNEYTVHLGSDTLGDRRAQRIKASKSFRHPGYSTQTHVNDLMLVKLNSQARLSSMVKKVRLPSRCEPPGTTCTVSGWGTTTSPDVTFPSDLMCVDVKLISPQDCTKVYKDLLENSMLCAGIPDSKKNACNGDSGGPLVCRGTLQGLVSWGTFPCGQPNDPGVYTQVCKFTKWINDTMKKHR

[2] = molecular target: human serum albumin (HSA) (human), P02768; assay: fluorescence polarization

B1: KLK7 inhibitor 278-tag (final KLK7 inhibitor) (peptide)
peptide 1: PCLY[Nle]A[hArg]CGKG
peptide 2: {fluorescein-PEG2″}-EYEK(Palmitoyl)EYE
modifications: bridge I:2-I:8; not fully specified (bridges); also: chain 2 C-terminus joined via PEG2 to Lys side chain of GKG linker
For B1, the Ki [1] was 7.4 nM and the Kd [2] was 164 nM.
